Measured values: the DeepSol protein solubility set

assay: soluble on expression in E. coli; label from the status in PepcDB or PDB records

Sequence	soluble on expression in E. coli
MAHHHHHHMSATRDGSRSHSDGGFDGRSLLSEQTKLLRESTPADINFIQFLKLRLSAQQRATAQRNYWQRVQREAADSMNANTAHRQGRGGISASVAPVSTSAAGRESEASSNHIGSGRRNWHAAGSAEGASFSTYDAEHMMLEHSTASFGTLSKQDAFTRATSHGAVPPPTVHQHSFEDLRAAVLKRRSTPASELTDFVAVSTAELSEDGNSSQRRPSGPLQEEDAYALAPFIASSYSAAAAAAIDERPAMACGKPQVPVDVDEMKDVALEPCPHCGRTFAPARLERHVVTCERHRNTLPKTKGDMKSCRAFSSRKKPDRTAGGDGAAASAAATANTAGAAPGGPLRWSTDTAIKPEKWRKQSAQLRNAMAGASVAVDDDRVLCPSCGRHFSDDVAARHIPICKSKGGRAA	not soluble
GSHMASMTGGQQMGRGSMTQDEMKKAAGWAALKYVEKGSIVGVGTGSTVNHFIDALGTMSEEIKGAVSSSVASTEKLEALGIKIFDCNEVASLDIYVDGADEINADREMIKGGGAALTREKIVAAIADKFICIVDGTKAVDVLGTFPLPVEVIPMARSYVARQLVKLGGDPCYREGVITDNGNVILDVYGMKITNPKQLEDQINAIPGVVTVGLFAHRGADVVITGTPEGAKIEE	soluble
MRYKKTLMLSIMITSFNSFAFNDNYSSTSTVYATSNEATDSRGSEHLRYPYLECIKIGMSRDYLENCVKVSFPTSQDMFYDAYPSTESDGAKTRTKEDFSARLLAGDYDSLQKLYIDFYLAQTTFDWEIPTRDQIETLVNYANEGKLSTALNQEYITGRFLTKENGRYDIVNVGGVPDNTPVKLPAIVSKRGLMGTTSVVNAIPNEIYPHIKVYEGTLSRLKPGGAMIAVLEYDVSELSKHGYTNLWDVQFKVLVGVPHAETGVIYDPVYEETVKPYQPSGNLTGKKLYNVSTNDMHNGYKWSNTMFSNSNYKTQILLTKGDGSGVKLYSKAYSENFK	not soluble
MKVYEFGKKENPAIMLLPGTCCHWKNNFSNVIDLLIEDFFVVCVSYDGFDETEKSEFQDMVTEVRKIENYINERFQGKIHAVYGCSLGG	not soluble
MPISETWLLPDGVADVLPEQAQVVETLRRQALDFLASRGYQLVYTPFIEYIESLSLLSESNHDLDLVTFKVIDQLSGRLLGVRADMTPQVARIDAHVRSIEGVARYCYAGTVLHTKPQNFNSSRAPLQLGAELYGHQSLEADIEMVDVMLGLIQQAHNLEGLHLDLGHVGLFRSLVKRAGLSKQVEQDLSDLYQRKALPELEEVTKTLAFGSDFYALGRYASDLNALEQHLSQDVLNDASFKTSLDDLKTTLSQIQTRWPNLRIGIDVVELRSYHYHTGLMYAVYAPNRAAPLAQGGRYDGIGEHFGRARPATGFSCDLYALCVGQFKEIETIVAPAGQDQQLLGAIAQARQNGLRVIQLLGNDDLSSVPYATHKMELAQDQWQINKI	not soluble
MKAILQRSIALLALAAGMSSVACADEVKMRVLGWYGNQPQSQQVERPFWKDLPKRSNGAFSANFRTIDELGLKGFESLRTLQSGAFDVVSFQISFVGGDAPVLMGADLPGAAFDFDQLQKNLDAYRPILEKELNDRFKAKLLTAWSFPFQILYCKGDIKTLDDLKGKKVRVSGTYTAKMVADLNAAGATLAGPEVYQGLMQGVVDCAITGSQYGNSNDWFEVAHSLSPIPLGGAGVVLQVARNAFWDKLSADQQAALSAEMKQLETALWDISRKGHEDGINCNVGKQPCTGKPGKMQLVEPTEADVREVKQLLKTSIVPMWIEDCSKFSKTCGDDWFRTIGAAAGIARLEHHHHHH	not soluble
GLPDSAFEHDGQLTKRDVRAITLARLAPVPGELLWDVGAGCGSIGIEWMRAHPTCRAMAIEADEGRQQLIEFNRDALGVPGLQLVRGSAPQALSGLERPDAIFIGGGVTRIGVLETCWEQLRSGGRLVANAVTLQSEAALMAWRERHGGELTRIHVAHAQPLGEFDTWRQALPITLLDVVKP	not soluble
LDRQTERLQQGEVDVRFNMVSRMLDHPDLAERWPHLQGKLDNLSQEYELIRFWIDSDDPRYHYGRFSEPVQRLIADGAGRYELELPEHRYALTARVGVLPAREGRPRLTYVTAIDSAAFHEARTSTLKW	not soluble
MPTIQSVRRTQSGRPGKRAINLSLSADVLDAARQLDINISQVCDTYLREVVRHEQERRWREEHADFITAYNATIEAENLPLDEWRSF	not soluble
